What all share (assay): cell-based or functional assay
One assay deals with human GCG receptor (human, UniProt P47871 26-477).
The target of another assay is T1, human GIP receptor (human, UniProt P48546 22-466).
T1 sequence (looked up): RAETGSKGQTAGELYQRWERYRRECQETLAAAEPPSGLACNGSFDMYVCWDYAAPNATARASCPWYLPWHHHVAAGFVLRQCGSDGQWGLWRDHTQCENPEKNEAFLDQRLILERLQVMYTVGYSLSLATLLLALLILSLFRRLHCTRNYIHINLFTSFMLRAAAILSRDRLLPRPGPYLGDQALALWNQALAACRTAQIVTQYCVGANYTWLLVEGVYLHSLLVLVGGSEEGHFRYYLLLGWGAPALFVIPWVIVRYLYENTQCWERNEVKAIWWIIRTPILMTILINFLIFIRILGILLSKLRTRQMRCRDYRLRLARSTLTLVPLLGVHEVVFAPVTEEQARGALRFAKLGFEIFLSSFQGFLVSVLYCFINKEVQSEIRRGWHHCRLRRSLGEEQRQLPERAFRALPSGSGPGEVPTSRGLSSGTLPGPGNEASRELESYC

The target of another assay is human GLP-1 receptor (human, UniProt P43220 24-463).

Bridge positions count the residues as written; N and C are the ends. Square brackets hold non-standard residues; d marks the D form. Ends that are not written are not given here. * marks the point of attachment. Acetyl(2-(4-imidazolyl)) = O=C(Cc1c[nH]cn1)*; Aib = CC(C)(N)C(=O)O

human GCG receptor, sequence (P47871 26-477): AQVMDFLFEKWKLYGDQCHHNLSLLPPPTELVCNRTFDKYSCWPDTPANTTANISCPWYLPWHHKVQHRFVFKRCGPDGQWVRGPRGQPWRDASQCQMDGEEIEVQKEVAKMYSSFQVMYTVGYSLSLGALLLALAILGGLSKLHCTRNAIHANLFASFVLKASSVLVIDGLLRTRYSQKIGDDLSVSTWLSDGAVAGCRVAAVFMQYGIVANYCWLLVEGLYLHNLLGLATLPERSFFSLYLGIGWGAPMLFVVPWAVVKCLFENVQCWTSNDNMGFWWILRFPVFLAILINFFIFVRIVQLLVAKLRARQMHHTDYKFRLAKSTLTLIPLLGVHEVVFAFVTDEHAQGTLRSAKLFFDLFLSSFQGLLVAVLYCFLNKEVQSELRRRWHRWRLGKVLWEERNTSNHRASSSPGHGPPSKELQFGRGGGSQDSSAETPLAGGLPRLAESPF

Consider {Acetyl(2-(4-imidazolyl))}-[Aib]QGTFTSDYSIAMDEIHQKDFVNWLLAQC (bridge 15-19) [Triple agonist of SEQ ID NO: 85], for which the “In vitro activity compared to native peptide (%) vs Glucagon” value (“In vitro activity … (%) vs Glucagon” for short) with human GCG receptor was below 0.1%. Further, the “In vitro activity compared to native peptide (%) vs GIP” value (“In vitro activity … (%) vs GIP” below) with human GIP receptor was 0.3%. For the same molecule, the “In vitro activity compared to native peptide (%) vs GLP-1” value (from here on “In vitro activity … (%) vs GLP-1”) with human GLP-1 receptor came to 4.3%.

As for H[Aib]EGTFTSDYSIAMDEIHQKDFVNWLLAQKC (bridge 16-20) [Triple agonist of SEQ ID NO: 79], the “In vitro activity … (%) vs Glucagon” value with human GCG receptor stood at 4.9%. For the same molecule, in the assay with human GIP receptor, the “In vitro activity … (%) vs GIP” value amounted to 1.4%. In addition, the “In vitro activity … (%) vs GLP-1” value in the assay with human GLP-1 receptor is 41.5%.

Regarding {Acetyl(2-(4-imidazolyl))}-[Aib]QGTFTSDYSKYLDEKRQKEFVNWLLAQKC (bridge 15-19) [Triple agonist of SEQ ID NO: 93], the “In vitro activity … (%) vs Glucagon” value with human GCG receptor was found to be 0.3%. The “In vitro activity … (%) vs GIP” value in the assay with human GIP receptor came out at 0.7%. In the assay with human GLP-1 receptor, the “In vitro activity … (%) vs GLP-1” value stood at 5.7%.

In the case of Y[Aib]QGTFTSDYSKYLDEKAAKEFVQWLLDHHPSSGQPPPSC (bridge 16-20) [Triple agonist of SEQ ID NO: 75], the “In vitro activity … (%) vs Glucagon” value with human GCG receptor came out at 8.5%. Moreover, the “In vitro activity … (%) vs GIP” value in the assay with human GIP receptor was found to be 18%. Also, in the assay with human GLP-1 receptor, the “In vitro activity … (%) vs GLP-1” value stood at 35.1%.

Regarding {Acetyl(2-(4-imidazolyl))}-[Aib]QGTFTSDYSKYLDEKRQKEFVQWLLDTKC (bridge 15-19) [Triple agonist of SEQ ID NO: 89], in the assay with human GCG receptor, the “In vitro activity … (%) vs Glucagon” value was found to be 0.7%. The “In vitro activity … (%) vs GIP” value with human GIP receptor is below 0.1%. In addition, the “In vitro activity … (%) vs GLP-1” value in the assay with human GLP-1 receptor was 7.1%.

For the molecule H[Aib]QGTFTSDYSKYLDEKRQKEFVQWLLDTKC (bridge 16-20) [Triple agonist of SEQ ID NO: 78], the “In vitro activity … (%) vs Glucagon” value with human GCG receptor is 14%. The “In vitro activity … (%) vs GIP” value with human GIP receptor is 0.12%. Moreover, the “In vitro activity … (%) vs GLP-1” value in the assay with human GLP-1 receptor worked out at 51%.

Take Y[Aib]QGTFTSDYSKYLDEKAAKDFVQWLLDHHPSSGQPPPSC (bridge 16-20) [Triple agonist of SEQ ID NO: 77]: in the assay with human GCG receptor, the “In vitro activity … (%) vs Glucagon” value was 12.2%. The “In vitro activity … (%) vs GIP” value with human GIP receptor came out at 35.5%. For the same molecule, the “In vitro activity … (%) vs GLP-1” value with human GLP-1 receptor is 38.7%.

Regarding {Acetyl(2-(4-imidazolyl))}-[Aib]QGTFTSDYSIAMDEIHQKDFVNWLLAQKC (bridge 15-19) [Triple agonist of SEQ ID NO: 92], the “In vitro activity … (%) vs Glucagon” value with human GCG receptor was below 0.1%. The “In vitro activity … (%) vs GIP” value with human GIP receptor was determined as 0.4%. In the assay with human GLP-1 receptor, the “In vitro activity … (%) vs GLP-1” value was 0.8%.

For {Acetyl(2-(4-imidazolyl))}-[Aib]QGTFTSDYSKYLDEKRQKEFVQWLLDTC (bridge 15-19) [Triple agonist of SEQ ID NO: 82], the “In vitro activity … (%) vs Glucagon” value with human GCG receptor was 1.1%. In addition, the “In vitro activity … (%) vs GIP” value with human GIP receptor was below 0.1%. Besides, the “In vitro activity … (%) vs GLP-1” value with human GLP-1 receptor stood at 9.5%.

Regarding {Acetyl(2-(4-imidazolyl))}-[Aib]EGTFTSDYSIAMDEIHQKDFVNWLLAQKC (bridge 15-19) [Triple agonist of SEQ ID NO: 90], in the assay with human GCG receptor, the “In vitro activity … (%) vs Glucagon” value was below 0.1%. Besides, the “In vitro activity … (%) vs GIP” value with human GIP receptor was below 0.1%. For the same molecule, the “In vitro activity … (%) vs GLP-1” value with human GLP-1 receptor is 7.4%.

As for H[Aib]EGTFTSDYSIAMDEIHQKDFVDWLLAEKC (bridge 16-20) [Triple agonist of SEQ ID NO: 80], in the assay with human GCG receptor, the “In vitro activity … (%) vs Glucagon” value came out at 0%. In addition, in the assay with human GIP receptor, the “In vitro activity … (%) vs GIP” value was found to be 0.1%. The “In vitro activity … (%) vs GLP-1” value in the assay with human GLP-1 receptor was determined as 8.1%.

Take {Acetyl(2-(4-imidazolyl))}-[Aib]QGTFTSDYSIAMDEIHQKDFVNWLLNTC (bridge 15-19) [Triple agonist of SEQ ID NO: 87]: the “In vitro activity … (%) vs Glucagon” value with human GCG receptor was below 0.1%. Further, the “In vitro activity … (%) vs GIP” value in the assay with human GIP receptor was below 0.1%. In addition, the “In vitro activity … (%) vs GLP-1” value in the assay with human GLP-1 receptor came out at 0.9%.

{Acetyl(2-(4-imidazolyl))}-[Aib]EGTFTSDYSIAMDEIHQKDFVNWLLAQC (bridge 15-19) [Triple agonist of SEQ ID NO: 83]: the “In vitro activity … (%) vs Glucagon” value in the assay with human GCG receptor worked out at 1.3%. In addition, the “In vitro activity … (%) vs GIP” value in the assay with human GIP receptor amounted to 0.4%. In addition, the “In vitro activity … (%) vs GLP-1” value in the assay with human GLP-1 receptor stood at 47.3%.

Regarding Y[Aib]QGTFTSDYSKYLDEKRAKDFVQWLLDHHPSSGQPPPSC (bridge 16-20) [Triple agonist of SEQ ID NO: 76], in the assay with human GCG receptor, the “In vitro activity … (%) vs Glucagon” value turned out to be 47.6%. The “In vitro activity … (%) vs GIP” value in the assay with human GIP receptor was determined as 11.7%. The “In vitro activity … (%) vs GLP-1” value with human GLP-1 receptor was 10.3%.

On to {Acetyl(2-(4-imidazolyl))}-[Aib]EGTFTSDYSIAMDEIHQKDFVDWLLAEC (bridge 15-19) [Triple agonist of SEQ ID NO: 84], for which the “In vitro activity … (%) vs Glucagon” value with human GCG receptor is below 0.1%. Also, the “In vitro activity … (%) vs GIP” value with human GIP receptor was below 0.1%. For the same molecule, the “In vitro activity … (%) vs GLP-1” value in the assay with human GLP-1 receptor came out at 4.2%.

With {Acetyl(2-(4-imidazolyl))}-[Aib]EGTFTSDYSIAMDEIHQKDFVDWLLAEKC (bridge 15-19) [Triple agonist of SEQ ID NO: 91], the “In vitro activity … (%) vs Glucagon” value with human GCG receptor came to 16.8%. The “In vitro activity … (%) vs GIP” value with human GIP receptor turned out to be 0.3%. Further, the “In vitro activity … (%) vs GLP-1” value with human GLP-1 receptor came to 31.9%.

Take {Acetyl(2-(4-imidazolyl))}-[Aib]QGTFTSDYSKYLDEKRQKEFVQWLLNTKC (bridge 15-19) [Triple agonist of SEQ ID NO: 88]: the “In vitro activity … (%) vs Glucagon” value with human GCG receptor came to 0.3%. Moreover, the “In vitro activity … (%) vs GIP” value with human GIP receptor was below 0.1%. The “In vitro activity … (%) vs GLP-1” value with human GLP-1 receptor was determined as 9.6%.

Take H[Aib]QGTFTSDVSKYLDGQAAQEFVAWLLAGC [Triple agonist of SEQ ID NO: 9]: the “In vitro activity … (%) vs Glucagon” value with human GCG receptor is 0.13%. For the same molecule, the “In vitro activity … (%) vs GIP” value with human GIP receptor was below 0.1%. Besides, the “In vitro activity … (%) vs GLP-1” value with human GLP-1 receptor was 32.1%.

Consider {Acetyl(2-(4-imidazolyl))}-[Aib]QGTFTSDYSKYLDEKRQKEFVNWLLAQC (bridge 15-19) [Triple agonist of SEQ ID NO: 86], for which, in the assay with human GCG receptor, the “In vitro activity … (%) vs Glucagon” value stood at 0.4%. The “In vitro activity … (%) vs GIP” value with human GIP receptor was 0.2%. In addition, in the assay with human GLP-1 receptor, the “In vitro activity … (%) vs GLP-1” value was 28.4%.

In the case of {Acetyl(2-(4-imidazolyl))}-[Aib]QGTFTSDYSKYLDEKRQKEFVQWLLNTC (bridge 15-19) [Triple agonist of SEQ ID NO: 81], in the assay with human GCG receptor, the “In vitro activity … (%) vs Glucagon” value was 0.3%. Further, the “In vitro activity … (%) vs GIP” value in the assay with human GIP receptor was below 0.1%. Moreover, the “In vitro activity … (%) vs GLP-1” value with human GLP-1 receptor was found to be 7.8%.

The values above are taken from US20230381281A1, “PHARMACEUTICAL COMPOSITION COMPRISING GLUCAGON/GLP-1/GIP TRIPLE AGONIST OR LONG-ACTING CONJUGATE THEREOF FOR PREVENTING OR TREATING LUPUS-RELATED DISEASES” (HANMI PHARM. CO., LTD., priority 2020, published 2023).
